Results published in patent publication US11054425B2, “System and method for identification and characterization of transglutaminase species” (Roche Sequencing Solutions, Inc., priority 2014, dated 2021).

Tests used:
[1] = tested on: KalbTG and S. mobaraensis MTG; assay: dual site-specific labeling with Cy3 and Cy5 labels; type: biochemical; details: KalbTG + Cy3 label 30 min, then S. mobaraensis MTG + Cy5 label 15 min
Protocol: Turning to FIG. 6C, the high sequence specificity of KalbTG was used to conjugate a 6 kDa Cy3 label to the YRYRQ (SEQ ID NO:1) site of a 7 kDa substrate peptide comprising both the KalbTG and S. mobaraensis MTG glutamine-containing motifs. The reaction was run for 30 minutes to saturate the YRYRQ (SEQ ID NO:1) site. Analysis by SDS-PAGE confirmed that the label was integrated at a single site. The substrate peptide was subsequently incubated for 15 minutes with S. mobaraensis MTG and a 6 kDa Cy5 label. […] Accordingly, KalbTG may be useful for the industrial-scale synthesis of complex protein conjugates of interest in therapeutic or diagnostic applications.
For the orthogonal labeling experiment, a molecule containing both KalbTG and MTG Q-tags was chemically synthesized to have the primary chemical structure:
(§1) If not noted otherwise, labeling reactions were performed for 15 minutes at 37° C. in the presence of 72 μM substrate protein, 720 μM label peptide and 1 μM transglutaminase in 200 mM MOPS pH 7.2 and 1 mM EDTA. […] Samples were taken between incubation steps and analyzed by SDS-PAGE, in-gel fluorescence (BioRad ChemiDoc gel documentation system, Cy3 and Cy5 LED and filter sets). […] The mixture was filtered (0.2 μm spin filter) and analyzed by LC-MS with UV detection at 214 nm and 305 nm.

[2] = tested on: Z-[GGGYRYRQGGGG (SEQ ID NO:75)]-OH; assay: GLDH assay of transglutaminase enzyme activity after storage; type: biochemical; details: as measured by GLDH assay
Protocol: A further experiment was performed to determine the activity of KalbTG enzymes prepared from two different constructs, and stored at two different temperatures. The KalbTGt3 (SEQ ID NO:10) and KalbTGt1 (SEQ ID NO: 12) enzymes tested were obtained respectively from the EcSlyD2-Xa-KalbTGt3-8×His-tag construct (SEQ ID NO:8) and the EcSlyD2-Xa-KalbTGt1-8×His-tag construct (SEQ ID NO:11) described in Example 3. The activity of the two KalbTG enzymes was tested after storage at either 4° C. or −20° C. and compared against the activity of commercially available S. mobaraensis MTG according to a published protocol (Oteng-Pabi, et al., 2013. Analytical biochemistry 441(2): 169-173). In particular, assays were performed at 37° C. in 200 μl total volume. The assay mixture included 200 mM MOPS, 1 mM EDTA, and 1 mM DTT at pH 7.4. Further, α-ketoglutarate and NADH were added at a concentration of 500 μM, along with 2 U/ml GLDH, and between 0.1 μg and 1.0 μg of one of the transglutaminase enzymes. The glutamine substrate was 200 μM Z-[[…] (SEQ ID NO:75)]-OH, and the amine donor was 10 mM cadaverine, where Z represents a carboxybenzyl group. All data were collected in triplicate (average of 3 wells in a microtiter plate) and baseline activity (buffer without enzyme) subtracted.

KalbTG = assay: Cy3 labeling of Q-tagged SlyD/FKBP scaffold, SDS-PAGE; type: biochemical, Kutzneria albida; details: 15 minute reaction, pH 6.2 to 9.0 tested
KalbTG, sequence (as listed by the source): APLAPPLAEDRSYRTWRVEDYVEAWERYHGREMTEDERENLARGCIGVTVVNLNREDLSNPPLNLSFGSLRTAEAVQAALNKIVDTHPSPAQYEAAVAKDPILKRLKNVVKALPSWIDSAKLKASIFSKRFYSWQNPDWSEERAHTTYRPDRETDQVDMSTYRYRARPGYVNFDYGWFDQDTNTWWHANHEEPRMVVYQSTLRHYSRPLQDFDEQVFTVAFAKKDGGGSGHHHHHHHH
Source text: Next, the array and in-solution data were applied to perform site-specific labeling on protein substrates. The molecular chaperone SlyD is a useful scaffold for labeling approaches as epitope-containing loops can be grafted onto the FKBP domain for presentation to binders or enzymes (PCT App. Pub. No. WO 2012/150321 A1 to Andres et al.). A chimeric protein consisting of the Thermus thermophilus FKBP domain and the KalbTG recognition sequence RYRQR (SEQ ID NO:14) was produced. Labeling with a ten-fold excess of KalbTG K-tag-Cy3 and a substrate to enzyme ratio of 72:1 afforded approximately 70% yield of a labeled protein species after 15 minutes (FIG. 6A). This yield remained constant over a time-course of 60 minutes. […] The molecular weight shift from 13 kDa to 19 kDa was observed on the SDS-PAGE gel, corresponding exactly to the incorporation of a single 6 kDa label molecule. […]
as §1

[3] = differential scanning calorimetry (DSC); type: physicochemical; details: purified and activated enzyme
Protocol: Initial screening at the 5 ml scale provided clear evidence that proteins with the anticipated electrophoretic mobility of full length KalbTG fusions were expressed, and that a fusion with tandem SlyD chaperones (Scholz, et al. 2005. Journal of Molecular Biology 345(5): 1229-1241) yielded the highest amount of soluble protein among all the constructs tested (FIG. 3A). The expression of this construct was further optimized by screening different incubation times and temperatures, Isopropyl β-D-1-thiogalactopyranoside (IPTG) inducer concentrations and induction times, media types and volumes. With reference to FIGS. 3B and 3C, the modular nature of the chosen fusion construct afforded the SlyD fusion protein, the pro-enzyme, and the activated enzyme by a combination of sequential purification and proteolytic cleavage steps. The expression construct 200 included, starting from N-terminus, two sequential SlyD chaperones 202, a factor Xa protease cleavage site (C1), the KalbTG pro-peptide 204, a trypsin protease cleavage site (C2) the KalbTG enzyme 206, and an 8×-histidine tag 208. The SlyD chaperones 202 are cleaved from the expression construct 200 with a factor Xa protease 210. […] The melting point of the purified and activated enzyme was determined to be 48.9° C. using differential scanning calorimetry (DSC). […]

Row | Molecule | yield of dually labeled construct [1] | increase in KalbTG enzymatic activity by purification process with ammonium chloride [2] | pH of highest labeling efficiency (KalbTG) | melting point (DSC) [3] [°C]
1 | Z-[GGGYRYRQGGG (SEQ ID NO: 101)]-PEG27-[GIEGRG (SEQ ID NO: 102)]-PEG27-PEG27-[GGGDYALQGG (SEQ ID NO: 103)]-OH | nearly quantitative yield |  |  | 
2 | KalbTG: Kutzneria albida microbial transglutaminase (protein, Hypothetical_transglutaminase, Kutzneria albida microbial transglutaminase) MHKWFLRAAVVAAVGFGLPTLIATTAQAAAVAAPTPRAPLAPPLAEDRSYRTWRVEDYVEAWERYHGREMTEDERENLARGCIGVTVVNLNREDLSNPPLNLSFGSLRTAEAVQAALNKIVDTHPSPAQYEAAVAKDPILKRLKNVVKALPSWIDSAKLKASIFSKRFYSWQNPDWSEERAHTTYRPDRETDQVDMSTYRYRARPGYVNFDYGWFDQDTNTWWHANHEEPRMVVYQSTLRHYSRPLQDFDEQVFTVAFAKKD |  | up to 9 fold | 7.4 | 48.9
